Reference: patent US20200262877A1, “ION CHANNEL-BINDING PEPTIDES AND METHODS OF USE THEREOF” (priority 2017, published 2020)

How the values were obtained:
[1] = target: T1, Kv1.2 (Homo sapiens, UniProt P16389); assay: cell-based; assay type: cell-based; settings: 100% = no change, <100% = inhibition
T1 construct: host or cells: HEK293 or CHO
Summary of the method: (§1)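 Transfected HEK293 or CHO cells were exposed for at least 5 min to peptides at 200 nM and 20 μM final, tested in duplicate, in HEPES-buffered physiological saline. Activation was taken as peptide-plus-agonist current over control current ×100, and inhibition as 1 minus that ratio ×100. Each channel's control was its own reference compound.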

[2] = target: T2, Kv1.3 (Homo sapiens, UniProt P22001); assay: cell-based; assay type: cell-based; settings: 100% = no change, <100% = inhibition
T2 construct: host or cells: HEK293 or CHO
T2 sequence (P22001 whole entry): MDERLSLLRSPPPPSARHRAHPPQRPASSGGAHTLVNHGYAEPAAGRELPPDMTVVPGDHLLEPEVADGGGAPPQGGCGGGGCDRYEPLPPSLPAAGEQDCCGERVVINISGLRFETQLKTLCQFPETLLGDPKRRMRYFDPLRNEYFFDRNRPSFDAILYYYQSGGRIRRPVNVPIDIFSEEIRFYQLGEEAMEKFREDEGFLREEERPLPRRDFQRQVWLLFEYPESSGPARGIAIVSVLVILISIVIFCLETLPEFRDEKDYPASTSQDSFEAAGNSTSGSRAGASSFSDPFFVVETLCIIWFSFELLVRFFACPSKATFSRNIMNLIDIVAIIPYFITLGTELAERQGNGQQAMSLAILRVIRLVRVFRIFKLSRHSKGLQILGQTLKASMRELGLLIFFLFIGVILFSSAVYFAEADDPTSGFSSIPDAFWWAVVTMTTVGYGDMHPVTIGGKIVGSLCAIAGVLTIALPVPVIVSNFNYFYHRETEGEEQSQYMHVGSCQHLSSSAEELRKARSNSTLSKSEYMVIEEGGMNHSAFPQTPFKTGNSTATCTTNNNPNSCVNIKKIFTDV
Summary of the method: as §1

[3] = target: T3, Kv1.1 (Homo sapiens, UniProt Q09470); assay: cell-based; assay type: cell-based; settings: 100% = no change, <100% = inhibition
T3 construct: host or cells: HEK293 or CHO
Summary of the method: as §1

[4] = target: T4, NR2B (Homo sapiens, UniProt Q13224); assay: Ion channel panel (IonWorks Barracuda): NR2B; assay type: cell-based; settings: 100% = no change, <100% = inhibition
T4 construct: host or cells: HEK293 or CHO
Summary of the method: as §1

[5] = target: T5, 5HT3a (Homo sapiens, UniProt P46098); assay: Ion channel panel (IonWorks Barracuda): 5HT3a; assay type: cell-based
T5 construct: host or cells: HEK293 or CHO
T5 sequence (P46098 whole entry, looked up): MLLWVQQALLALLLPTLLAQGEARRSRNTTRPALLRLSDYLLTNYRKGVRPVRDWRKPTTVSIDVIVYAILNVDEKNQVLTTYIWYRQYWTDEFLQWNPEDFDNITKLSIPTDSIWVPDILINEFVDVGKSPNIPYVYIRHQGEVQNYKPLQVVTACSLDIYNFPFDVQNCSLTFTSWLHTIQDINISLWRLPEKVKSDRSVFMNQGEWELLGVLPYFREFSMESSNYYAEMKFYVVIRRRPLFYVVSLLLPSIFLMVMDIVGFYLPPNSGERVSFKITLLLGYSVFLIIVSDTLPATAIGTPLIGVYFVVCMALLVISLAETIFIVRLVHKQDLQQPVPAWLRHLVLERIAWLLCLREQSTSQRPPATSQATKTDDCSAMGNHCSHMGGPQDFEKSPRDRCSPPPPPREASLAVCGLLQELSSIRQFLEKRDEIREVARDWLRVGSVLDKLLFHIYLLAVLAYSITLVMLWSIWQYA
Summary of the method: as §1

[6] = target: T6, Nav1.7 (Homo sapiens, UniProt Q15858); assay: cell-based; assay type: cell-based; settings: 100% = no change; for Activity of Nav1.7 with peptide, expressed as a percentage of the reference compound: peptide at 0.2 μM; for Activity of Nav1.7 with peptide (percentage of the reference compound): peptide at 20 μM
T6 construct: host or cells: HEK293 or CHO
T6 sequence (Q15858 whole entry): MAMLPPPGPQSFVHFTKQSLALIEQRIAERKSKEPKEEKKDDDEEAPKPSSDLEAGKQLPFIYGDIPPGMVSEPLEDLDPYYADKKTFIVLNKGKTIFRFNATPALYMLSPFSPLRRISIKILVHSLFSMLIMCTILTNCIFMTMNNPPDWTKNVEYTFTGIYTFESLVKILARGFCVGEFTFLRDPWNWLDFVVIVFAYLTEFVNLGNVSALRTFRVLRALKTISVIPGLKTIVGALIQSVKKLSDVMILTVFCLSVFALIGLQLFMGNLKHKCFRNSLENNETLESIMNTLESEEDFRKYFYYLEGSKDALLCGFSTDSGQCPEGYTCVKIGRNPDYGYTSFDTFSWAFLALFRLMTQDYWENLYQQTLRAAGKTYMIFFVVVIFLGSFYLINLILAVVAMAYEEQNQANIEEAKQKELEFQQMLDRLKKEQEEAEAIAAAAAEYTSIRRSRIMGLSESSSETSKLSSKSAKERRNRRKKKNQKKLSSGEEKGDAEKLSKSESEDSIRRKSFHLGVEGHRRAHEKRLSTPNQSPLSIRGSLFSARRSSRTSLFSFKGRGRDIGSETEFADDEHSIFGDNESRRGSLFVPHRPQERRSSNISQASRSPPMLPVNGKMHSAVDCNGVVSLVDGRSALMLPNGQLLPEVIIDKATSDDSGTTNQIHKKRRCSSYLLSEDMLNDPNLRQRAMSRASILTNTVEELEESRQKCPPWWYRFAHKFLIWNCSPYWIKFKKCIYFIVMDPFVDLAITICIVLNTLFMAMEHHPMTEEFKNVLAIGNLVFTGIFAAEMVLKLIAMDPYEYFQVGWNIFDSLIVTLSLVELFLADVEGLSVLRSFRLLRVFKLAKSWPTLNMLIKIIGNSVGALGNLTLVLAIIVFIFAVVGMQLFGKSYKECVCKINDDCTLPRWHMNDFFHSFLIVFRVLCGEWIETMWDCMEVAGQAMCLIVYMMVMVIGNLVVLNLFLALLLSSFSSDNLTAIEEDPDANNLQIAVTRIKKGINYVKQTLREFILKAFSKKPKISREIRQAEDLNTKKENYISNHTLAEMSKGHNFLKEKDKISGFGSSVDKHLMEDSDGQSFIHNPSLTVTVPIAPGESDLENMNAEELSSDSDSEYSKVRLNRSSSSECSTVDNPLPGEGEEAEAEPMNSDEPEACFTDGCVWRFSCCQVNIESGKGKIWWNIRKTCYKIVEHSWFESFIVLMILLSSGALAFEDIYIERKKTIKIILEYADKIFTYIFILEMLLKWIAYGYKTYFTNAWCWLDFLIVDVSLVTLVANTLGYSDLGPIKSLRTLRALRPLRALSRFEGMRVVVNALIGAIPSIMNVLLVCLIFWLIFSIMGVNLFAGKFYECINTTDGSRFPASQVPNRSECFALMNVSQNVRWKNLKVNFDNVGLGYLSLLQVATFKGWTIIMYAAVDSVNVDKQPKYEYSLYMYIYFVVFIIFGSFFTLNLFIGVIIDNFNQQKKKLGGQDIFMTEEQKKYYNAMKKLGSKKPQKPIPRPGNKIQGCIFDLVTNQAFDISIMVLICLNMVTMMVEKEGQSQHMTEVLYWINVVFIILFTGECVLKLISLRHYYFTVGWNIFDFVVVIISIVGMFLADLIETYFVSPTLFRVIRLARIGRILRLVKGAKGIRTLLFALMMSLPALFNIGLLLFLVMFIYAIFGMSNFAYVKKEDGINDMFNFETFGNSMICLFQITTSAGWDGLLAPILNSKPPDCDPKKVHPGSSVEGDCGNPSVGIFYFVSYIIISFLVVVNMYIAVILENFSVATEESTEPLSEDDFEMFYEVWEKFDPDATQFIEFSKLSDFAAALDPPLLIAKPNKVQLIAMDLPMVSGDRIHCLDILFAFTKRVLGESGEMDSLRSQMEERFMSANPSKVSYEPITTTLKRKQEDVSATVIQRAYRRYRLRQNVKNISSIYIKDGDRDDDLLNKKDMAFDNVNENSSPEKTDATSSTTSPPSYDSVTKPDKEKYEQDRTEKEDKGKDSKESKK

[7] = target: T7, TRPV1 (Homo sapiens, UniProt Q8NER1); assay: Ion channel panel (IonWorks Barracuda): TRPV1; assay type: cell-based; settings: 100% = no change, <100% = inhibition
T7 construct: host or cells: HEK293 or CHO
Summary of the method: as §1

[8] = target: hERG (Homo sapiens, UniProt Q12809); assay: in vitro; settings: 100% = no change, <100% = inhibition
Summary of the method: as §1

[9] = target: Nav1.5 (Homo sapiens, UniProt Q14524); assay: in vitro; settings: 100% = no change; for Activity of Nav1.5 with peptide, expressed as a percentage of the reference compound: peptide at 0.2 μM; for Activity of Nav1.5 with peptide (percentage of the reference compound): peptide at 20 μM
Chain of Nav1.5 (Q14524 whole entry): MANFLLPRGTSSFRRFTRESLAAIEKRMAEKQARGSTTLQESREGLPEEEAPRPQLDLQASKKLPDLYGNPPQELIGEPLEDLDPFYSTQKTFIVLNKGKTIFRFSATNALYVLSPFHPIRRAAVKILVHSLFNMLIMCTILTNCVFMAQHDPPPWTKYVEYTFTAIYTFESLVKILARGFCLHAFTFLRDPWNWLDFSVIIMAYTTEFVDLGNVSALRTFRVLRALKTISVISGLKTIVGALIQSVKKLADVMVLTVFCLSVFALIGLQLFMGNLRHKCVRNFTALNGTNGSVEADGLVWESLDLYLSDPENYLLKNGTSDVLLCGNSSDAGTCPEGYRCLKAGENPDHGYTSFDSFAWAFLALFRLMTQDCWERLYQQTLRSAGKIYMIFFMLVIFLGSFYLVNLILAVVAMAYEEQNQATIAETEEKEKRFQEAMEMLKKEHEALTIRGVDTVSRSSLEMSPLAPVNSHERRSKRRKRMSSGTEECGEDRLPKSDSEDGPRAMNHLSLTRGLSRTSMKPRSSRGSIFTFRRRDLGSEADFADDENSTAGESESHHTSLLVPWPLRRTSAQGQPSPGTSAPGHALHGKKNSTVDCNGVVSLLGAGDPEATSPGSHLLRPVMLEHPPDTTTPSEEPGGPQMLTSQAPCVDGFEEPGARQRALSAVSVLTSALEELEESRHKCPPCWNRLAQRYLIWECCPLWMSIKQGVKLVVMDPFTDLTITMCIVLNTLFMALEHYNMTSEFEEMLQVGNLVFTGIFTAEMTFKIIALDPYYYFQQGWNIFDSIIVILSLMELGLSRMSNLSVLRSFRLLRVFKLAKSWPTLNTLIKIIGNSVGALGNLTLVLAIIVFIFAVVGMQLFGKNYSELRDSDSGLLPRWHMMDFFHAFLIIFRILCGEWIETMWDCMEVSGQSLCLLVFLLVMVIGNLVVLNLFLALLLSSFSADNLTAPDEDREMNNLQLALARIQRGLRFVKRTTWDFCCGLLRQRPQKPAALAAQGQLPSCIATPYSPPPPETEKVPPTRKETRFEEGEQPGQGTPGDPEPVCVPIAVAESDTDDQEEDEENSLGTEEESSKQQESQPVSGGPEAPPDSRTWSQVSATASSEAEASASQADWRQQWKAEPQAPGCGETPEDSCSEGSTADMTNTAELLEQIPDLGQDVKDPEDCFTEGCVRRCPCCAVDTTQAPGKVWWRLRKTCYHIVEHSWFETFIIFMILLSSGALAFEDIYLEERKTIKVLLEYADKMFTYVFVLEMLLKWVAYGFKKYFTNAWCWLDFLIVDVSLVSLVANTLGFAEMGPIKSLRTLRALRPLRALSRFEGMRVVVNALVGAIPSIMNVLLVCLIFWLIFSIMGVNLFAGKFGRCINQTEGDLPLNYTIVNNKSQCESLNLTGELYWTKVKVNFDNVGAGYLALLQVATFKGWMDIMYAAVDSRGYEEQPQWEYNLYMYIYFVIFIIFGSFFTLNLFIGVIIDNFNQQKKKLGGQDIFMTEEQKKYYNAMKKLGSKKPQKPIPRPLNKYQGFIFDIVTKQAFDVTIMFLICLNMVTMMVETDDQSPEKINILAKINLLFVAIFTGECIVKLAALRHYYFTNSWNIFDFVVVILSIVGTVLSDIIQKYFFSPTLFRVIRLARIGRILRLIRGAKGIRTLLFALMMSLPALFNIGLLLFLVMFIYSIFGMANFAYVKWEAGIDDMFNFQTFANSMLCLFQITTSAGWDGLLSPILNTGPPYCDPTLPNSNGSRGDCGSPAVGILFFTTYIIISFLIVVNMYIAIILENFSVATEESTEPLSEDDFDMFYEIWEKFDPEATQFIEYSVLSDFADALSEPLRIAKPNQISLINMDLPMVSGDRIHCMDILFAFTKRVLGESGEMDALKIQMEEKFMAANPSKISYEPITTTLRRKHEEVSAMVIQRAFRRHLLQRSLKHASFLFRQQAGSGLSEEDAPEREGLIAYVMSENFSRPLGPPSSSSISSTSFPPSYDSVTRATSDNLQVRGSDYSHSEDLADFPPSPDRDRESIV
Summary of the method: as §1

[10] = target: T8, α3β4 (Homo sapiens, UniProt P30926+P32297); assay: Ion channel panel (IonWorks Barracuda): α3β4; assay type: cell-based; settings: 100% = no change, <100% = inhibition
T8 construct: host or cells: HEK293 or CHO
Summary of the method: as §1

[11] = target: T9, TRPA1 (Homo sapiens, UniProt O75762); assay: Ion channel panel (IonWorks Barracuda): TRPA1; assay type: cell-based; settings: 100% = no change, <100% = inhibition
T9 construct: host or cells: HEK293 or CHO
Summary of the method: as §1

[12] = test system: GABA; assay: Ion channel panel (IonWorks Barracuda): GABA; assay type: cell-based; settings: 100% = no change, <100% = inhibition
Summary of the method: as §1

[13] = target: T10, α4β2 (Homo sapiens, UniProt P17787+P43681); assay: Ion channel panel (IonWorks Barracuda): α4β2; assay type: cell-based; settings: 100% = no change, <100% = inhibition
T10 construct: host or cells: HEK293 or CHO
Summary of the method: as §1

[14] = target: T11, NR2A (Homo sapiens, UniProt Q12879); assay: Ion channel panel (IonWorks Barracuda): NR2A; assay type: cell-based; settings: 100% = no change, <100% = inhibition
T11 construct: host or cells: HEK293 or CHO
Summary of the method: as §1

[15] = target: T12, Kir2.1 (Homo sapiens, UniProt P63252); assay: Ion channel panel (IonWorks Barracuda): Kir2.1; assay type: cell-based; settings: 100% = no change, <100% = inhibition
T12 construct: host or cells: HEK293 or CHO
Summary of the method: as §1

[16] = target: T13, Cav2.1 (Homo sapiens, UniProt O00555); assay: cell-based; settings: 100% = no change, <100% = inhibition
T13 construct: host or cells: HEK293 or CHO
Summary of the method: as §1

[17] = target: T14, Kv2.1 (Homo sapiens, UniProt Q14721); assay: cell-based; settings: 100% = no change, <100% = inhibition
T14 construct: host or cells: HEK293 or CHO
Summary of the method: as §1

[18] = target: T15, Cav2.2 (Homo sapiens, UniProt Q00975); assay: cell-based; settings: 100% = no change, <100% = inhibition
T15 construct: host or cells: HEK293 or CHO
Summary of the method: as §1

[19] = first of two Nav1.7 columns (probably TP1)
[20] = second of two Nav1.7 columns (probably TP2)
[21] = first of two Nav1.5 columns (probably TP1)
[22] = second of two Nav1.5 columns (probably TP2)

T1 sequence (P16389 whole entry): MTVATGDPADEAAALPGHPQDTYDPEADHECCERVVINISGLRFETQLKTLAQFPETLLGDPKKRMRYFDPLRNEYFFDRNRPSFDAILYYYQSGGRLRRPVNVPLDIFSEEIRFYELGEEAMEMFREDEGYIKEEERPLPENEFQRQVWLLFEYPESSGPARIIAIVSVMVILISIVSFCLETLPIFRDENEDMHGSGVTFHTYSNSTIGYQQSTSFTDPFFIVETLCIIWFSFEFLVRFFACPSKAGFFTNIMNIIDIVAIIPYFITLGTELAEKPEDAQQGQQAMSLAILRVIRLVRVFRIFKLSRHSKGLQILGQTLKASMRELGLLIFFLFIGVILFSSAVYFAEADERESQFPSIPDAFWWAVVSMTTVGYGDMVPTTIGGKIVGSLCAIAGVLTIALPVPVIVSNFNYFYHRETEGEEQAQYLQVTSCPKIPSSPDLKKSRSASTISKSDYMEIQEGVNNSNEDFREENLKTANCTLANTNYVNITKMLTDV

23 (GSCIGEGVPCDENDPRCCFGLVCLKPTLHGIWYKSYYCYKK) [compound 23]
Activity of Kv1.2 with peptide, expressed as a percentage of the reference compound ([1]; peptide at 0.2 μM): 83% | Activity of Kv1.2 with peptide (percentage of the reference compound) ([1]; peptide at 20 μM): 106% | Activity of Kv1.3 with peptide, expressed as a percentage of the reference compound ([2]; peptide at 0.2 μM): 81% | Activity of Kv1.3 with peptide (percentage of the reference compound) ([2]; peptide at 20 μM): 77% | Activity of Kv1.1 with peptide, expressed as a percentage of the reference compound ([3]; peptide at 0.2 μM): 95% | Activity of Kv1.1 with peptide (percentage of the reference compound) ([3]; peptide at 20 μM): 102% | Activity of NR2B with peptide, expressed as a percentage of the reference compound ([4]; peptide at 0.2 μM): 95% | Activity of NR2B with peptide (percentage of the reference compound) ([4]; peptide at 20 μM): 82% | Activity of 5HT3a with peptide (percentage of the reference compound) [5]: 101% | Activity of 5HT3a with peptide, expressed as a percentage of the reference compound [5]: 74% | Activity of Nav1.7 with peptide, expressed as a percentage of the reference compound [6, 19]: 89% | Activity of Nav1.7 with peptide, expressed as a percentage of the reference compound [6, 20]: 93% | Activity of Nav1.7 with peptide (percentage of the reference compound) [6, 19]: 65% | Activity of Nav1.7 with peptide (percentage of the reference compound) [6, 20]: 63% | Activity of TRPV1 with peptide, expressed as a percentage of the reference compound ([7]; peptide at 0.2 μM): 117% | Activity of TRPV1 with peptide (percentage of the reference compound) ([7]; peptide at 20 μM): 87% | Activity of hERG with peptide, expressed as a percentage of the reference compound ([8]; peptide at 0.2 μM): 92% | Activity of hERG with peptide (percentage of the reference compound) ([8]; peptide at 20 μM): 78% | Activity of Nav1.5 with peptide, expressed as a percentage of the reference compound [9, 21]: 85% | Activity of Nav1.5 with peptide, expressed as a percentage of the reference compound [9, 22]: 87% | Activity of Nav1.5 with peptide (percentage of the reference compound) [9, 21]: 85% | Activity of Nav1.5 with peptide (percentage of the reference compound) [9, 22]: 83% | Activity of a3b4 with peptide, expressed as a percentage of the reference compound ([10]; peptide at 0.2 μM): 94% | Activity of a3b4 with peptide (percentage of the reference compound) ([10]; peptide at 20 μM): 93% | Activity of TRPA1 with peptide, expressed as a percentage of the reference compound ([11]; peptide at 0.2 μM): 126% | Activity of TRPA1 with peptide (percentage of the reference compound) ([11]; peptide at 20 μM): 83% | Activity of GABA with peptide, expressed as a percentage of the reference compound ([12]; peptide at 0.2 μM): 100% | Activity of GABA with peptide (percentage of the reference compound) ([12]; peptide at 20 μM): 103% | Activity of a4b2 with peptide, expressed as a percentage of the reference compound ([13]; peptide at 0.2 μM): 87% | Activity of a4b2 with peptide (percentage of the reference compound) ([13]; peptide at 20 μM): 79% | Activity of NR2A with peptide, expressed as a percentage of the reference compound ([14]; peptide at 0.2 μM): 88% | Activity of NR2A with peptide (percentage of the reference compound) ([14]; peptide at 20 μM): 89% | Activity of Kir2.1 with peptide, expressed as a percentage of the reference compound ([15]; peptide at 0.2 μM): 105% | Activity of Kir2.1 with peptide (percentage of the reference compound) ([15]; peptide at 20 μM): 82% | Activity of Cav2.1 with peptide, expressed as a percentage of the reference compound ([16]; peptide at 0.2 μM): 95% | Activity of Cav2.1 with peptide (percentage of the reference compound) ([16]; peptide at 20 μM): 102% | Activity of Kv2.1 with peptide, expressed as a percentage of the reference compound ([17]; peptide at 0.2 μM): 93% | Activity of Kv2.1 with peptide (percentage of the reference compound) ([17]; peptide at 20 μM): 103% | Activity of Cav2.2 with peptide, expressed as a percentage of the reference compound ([18]; peptide at 0.2 μM): 110% | Activity of Cav2.2 with peptide (percentage of the reference compound) ([18]; peptide at 20 μM): 95%
